Experiments:
[1] = target: T1, recombinant human SOD1^WT, 6His-tagged (N-term), expressed in E. coli (human, UniProt P00441 2-154, in the MST assay labeled with BLUE fluorescent dye NT-495-NHS (lysine chemistry)); test: MST instrument, fluorescence change of labeled SOD1^WT (200 nM), peptide 0-100 µM
T1 construct: also called wild type SOD1; not shown: N-terminal 6His tag from pHIS1 vector

[2] = target: T2, recombinant human SOD1^G93A, 6His-tagged (N-term), expressed in E. coli (human, UniProt P00441 2-154, G93A, in the MST assay labeled with BLUE fluorescent dye NT-495-NHS (lysine chemistry)); test: MST instrument, fluorescence change of labeled SOD1^G93A (300 nM), peptide 0-100 µM
T2 construct: Dimer by gel filtration, partially monomerizes and precipitates at 37 C; also called SOD1M; not shown: N-terminal 6His tag from pHIS1 vector
T2 sequence (P00441 2-154 G94A): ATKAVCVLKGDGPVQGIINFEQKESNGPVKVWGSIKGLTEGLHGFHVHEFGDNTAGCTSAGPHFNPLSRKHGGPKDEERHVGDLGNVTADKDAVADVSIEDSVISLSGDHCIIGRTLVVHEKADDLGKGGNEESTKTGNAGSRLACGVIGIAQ

[3] = target: T1, recombinant human SOD1^WT, 6His-tagged …; test: MST fluorescence change, labeled SOD1^WT 200 nM
Experimental: The assessment of peptide binding to the proteins was carried out using Monolith NT.115 (NanoTemper Technologies, Munchen, Germany). […] The final concentration of either DMSO or DMF in the binding buffer was 1%. […] The binding data were analyzed by a non-linear regression using a logistic (three parameter) function implemented in Prism6 (GraphPad) program.
The binding of synthetic peptides to fluorescently labeled SOD1^WT or SOD1^G93A was assessed using a microscale thermophoresis technique (MST).

T1 sequence (P00441 2-154): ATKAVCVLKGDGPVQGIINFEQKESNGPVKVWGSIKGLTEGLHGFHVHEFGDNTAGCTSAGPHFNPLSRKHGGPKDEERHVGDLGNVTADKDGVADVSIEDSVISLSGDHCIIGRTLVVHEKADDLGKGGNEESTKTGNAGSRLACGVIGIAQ

LSGDHCIIGRTLVVHEKADD (Synthesized by GL Biochem; purity >90%) [peptide SE-12 (SOD1 aa. 106-125)]
binding result [1]: binds | binding result [2]: binds

DKDGVADVSIEDSVISLSGD (Synthesized by GL Biochem; purity >90%) [peptide SE-11 (SOD1 aa. 90-109)]
binding result [2]: binds | binding result [3]: no binding (tested: peptide 0-100 µM)

Reference: US20190022179A1 (B G NEGEV TECHNOLOGIES AND APPLICATIONS, published 2019)
